What was measured:
Assay in all cases: SEC + other: SDS-PAGE
[1] = target: Δ(185-243) Phe71Tyr apoA-I (globular domain, residues 1-184) (human)
[2] = target: Δ(185-243) Glu34Lys apoA-I (globular domain, residues 1-184) (human)
[3] = target: Δ(185-243) WT apoA-I (globular domain, residues 1-184, of human apolipoprotein A-I) (human)
[4] = target: Δ(185-243) Leu159Arg apoA-I (globular domain, residues 1-184) (human)

With “Δ(185-243) Phe71Tyr apoA-I (globular domain, residues 1-184) (domain or fragment)” the stoichiometry N [1] was 2.
Substance “Δ(185-243) Glu34Lys apoA-I (globular domain, residues 1-184) (domain or fragment)” has a stoichiometry N [2] of 2.
“Δ(185-243) WT apoA-I (globular domain, residues 1-184, of human apolipoprotein A-I) (domain or fragment)” showed a stoichiometry N [3] of 2.
“Δ(185-243) Leu159Arg apoA-I (globular domain, residues 1-184) (domain or fragment)” gave a stoichiometry N [4] of 2.

Reference: publication doi:10.1101/354001
